According to patent US7655227 (Chugai, dated 2010):
Numbering of substitutions follows the chain as printed.

B1: antibody having both a humanized H-chain version “a” and a chimeric L-chain (antibody, V domains shown)
VH: QVQLVESGGGVVQPGRSLRLSCAASGFTFSSYGMSWVRQAPGKGLEWVATISSGGSYTYYPDSVKGRFTISRDNSKNTLYLQMNSLRAEDTAVYYCARQTTMTYFAYWGQGTLVTVSS
VL: QLVLTQSSSASFSLGASAKLTCTLSSQHSTYTIEWYQQQPLKPPKYVMDLKQDGSHSTGDGIPDRFSGSSSGADRYLSISNIQPEDEAMYICGVGDTIKEQFVYVFGGGTKVTVLG
notes: Human Cγ1 H-chain C-region
B2: hybrid antibody with humanized H-chain version a and L-chain hmmMBC1L(λ) (human FR1/mouse FR2,3,4) (antibody, V domains shown)
VH: B1 VH
VL: QLVLTQSPSASASLGASVKLTCTLSSQHSTYTIEWYQQQPLKPPKYVMDLKQDGSHSTGDGIPDRFSGSSSGADRYLSISNIQPEDEAMYICGVGDTIKEQFVYVFGGGTKVTVL
notes: Human Cγ1 and human λ C-regions; expressed in COS-7 cells
B3: humanized #23-57-137-1 antibody having H-chain version “a” and L-chain version “j” (antibody, IgG1, V domains shown)
VH: B1 VH
VL: QLVLTQSPSASASLGASVKLTCTLSSQHSTYTIEWYQQQPEKGPKYLMDLKQDGSHSTGDGIPDRFSGSSSGAERYLTISSLQSEDEADYYCGVGDTIKEQFVYVFGGGTKLTVLG
notes: Human Cγ1 (IgG1) and human λ C-regions; expressed in COS-7 cells; also called hMBC1Ljλ
B4: humanized #23-57-137-1 antibody having H-chain version “a” and L-chain version “q” (antibody, IgG1, V domains shown)
VH: B1 VH
VL: B3 VL with Y91I
notes: Human Cγ1 (IgG1) and human λ C-regions; expressed in COS-7 cells and in CHO cells; also called hMBC1Lqλ
B5: hybrid antibody with humanized H-chain version a and L-chain m/hMBC1Laλ (mouse FR1,2/human FR3,4) (antibody, V domains shown)
VH: B1 VH
VL: QLVLTQSSSASFSLGASAKLTCTLSSQHSTYTIEWYQQQPLKPPKYVMDLKQDGSHSTGDGIPDRFSGSSSGAERYLTISSLQSEDEADYYCGVGDTIKEQFVYVFGGGTKLTVL
notes: as for B2
B6: humanized #23-57-137-1 antibody having H-chain version “a” and L-chain version “o” (antibody, IgG1, V domains shown)
VH: B1 VH
VL: B3 VL with K45R, L47V
notes: Human Cγ1 (IgG1) and human λ C-regions; expressed in COS-7 cells; also called hMBC1Loλ
B7: humanized #23-57-137-1 antibody having H-chain version “a” and L-chain version “m” (antibody, IgG1, V domains shown)
VH: B1 VH
VL: B3 VL with K45R
notes: Human Cγ1 (IgG1) and human λ C-regions; expressed in COS-7 cells; also called hMBC1Lmλ
B8: humanized #23-57-137-1 antibody having H-chain version “a” and L-chain version “l” (antibody, IgG1, V domains shown)
VH: B1 VH
VL: B3 VL with L47V
notes: Human Cγ1 (IgG1) and human λ C-regions; expressed in COS-7 cells; also called hMBC1Llλ
B9: humanized #23-57-137-1 antibody having H-chain version “a” and L-chain version “t” (antibody, IgG1, V domains shown)
VH: B1 VH
VL: B3 VL with K45R, L47V, Y91I
notes: Human Cγ1 (IgG1) and human λ C-regions; expressed in COS-7 cells; also called hMBC1Ltλ
B10: mouse monoclonal antibody #23-57-137-1 against human PTHrP (1-34) (antibody, V domains shown)
VH: EVQLVESGGDLVKPGGSLKLSCAASGFTFSSYGMSWIRQTPDKRLEWVATISSGGSYTYYPDSVKGRFTISRDNAKNTLYLQMSSLKSEDTAMFYCARQTTMTYFAYWGQGTLVTVSA
VL: B1 VL
notes: Mouse antibody in hybridoma culture supernatant (FERM BP-5631); Lambda L-chain; also called MBC1
B11: chimeric #23-57-137-1 antibody with L-chain λ chain C-region (antibody, IgG1, V domains shown)
VH: B10 VH
VL: B1 VL
notes: Mouse V-regions joined to human H-chain C-region Cγ1 (IgG1) and human λ chain C-region (isotype Mcg+Ke+Oz-, EMBL X57819); Expressed in COS-7 cells; also called chimeric antibody (MBC1HcDNA/pCOS1 and MBC1L(λ)/neo)
B12: chimeric #23-57-137-1 antibody with L-chain κ chain C-region (antibody, IgG1, V domains shown)
VH: B10 VH
VL: B1 VL
notes: Mouse V-regions joined to human H-chain C-region Cγ1 (IgG1) and human κ chain C-region cloned from HEF-PM1k-gk; Expressed in COS-7 cells; also called chimeric antibody (MBC1HcDNA/pCOS1 and MBC1L(κ)/neo)

Target: T1, human PTHrP (1-34) (human)
T1 construct: Coated on the ELISA plate at 1 ug/ml; Added at 1 ng/ml final in the cAMP neutralisation assay, where the species is not restated; also called parathyroid hormone-related peptide (1-34)
Experiment: ELISA, plate coated with human PTHrP (1-34)
Description: An ELISA plate for determining antigen-binding ability was prepared as follows. Each well of a 96-well ELISA plate was coated with 100 μl of a coating buffer containing 1 μg/ml of human PTHrP (1-34) and then blocked with 200 μl of a dilution buffer. Subsequently, each well was added with each of the serial dilutions of the COS-7 cell culture supernatant in which each of the hybrid antibodies and humanized antibodies was expressed, or added with each of the serial dilutions of each of the hybrid antibodies and humanized antibodies in a purified form. The plate was incubated at room temperature and washed with PBS-Tween 20. Subsequently, each well was added with 100 μl of alkaline phosphatase-conjugated goat anti-human IgG antibody (TAGO). The plate was incubated at room temperature and washed with PBS-Tween 20. Subsequently, each well was added with 1 mg/ml of a substrate solution ("Sigma 104"; p-nitrophenylphosphoric acid, SIGMA). The solution was measured on its absorbance at 405 nm using Microplate Reader (Bio Rad).

Binding result, binds:
B1
B2
B3
B4
B5
B6
B7
B8
B9

Target: T1, human PTHrP (1-34)
Experiment: solid phase RIA of hybridoma culture supernatant
Description: The screening of hybridomas was performed by determining the presence of PTHrP-recognition antibodies in the culture supernatant of the wells in which cell growth had been observed in HAT medium, by solid phase RIA method. The hybridomas were collected from the wells in which the binding ability to the PTHrP-recognition antibodies had been confirmed. The hybridomas thus obtained was suspended into RPMI-1640 medium containing 15% FCS supplemented with OPI-supplement (Sigma), followed by unification of the hybridomas by limiting dilution method.

Binding result, binds:
B10

Target: T1, human PTHrP (1-34)
Experiment: ELISA, plate coated with human PTHrP (1-34); COS-7 supernatant or purified antibody
Description: An ELISA plate for the determination of antigen-binding ability was prepared as follows. Each well of a 96-well ELISA plate was coated with 100 µl of a coating buffer supplemented with 1 µg/ml of human PTHrP (1-34) (Peptide Research Institute), and then blocked with 200 µl of a dilution buffer. Each well was added with each of the serial dilutions of the COS-7 cell culture supernatant in which each of the chimeric antibodies had been expressed, or added with each of the serial dilutions of each of the chimeric antibodies per se in a purified form. After the plate was incubated at room temperature and washed with PBS-Tween 20, each well of the plate was added with 100 µl of a solution of alkaline phosphatase-conjugated goat anti-human IgG antibodies (TAGO). After the plate was incubated at room temperature and washed with PBS-Tween 20, each well of the plate was added with 1 mg/ml of a substrate solution ("Sigma 104"; p-nitrophenylphosphoric acid, SIGMA). The solution was measured on its absorbance at 405 nm using Microplate Reader (Bio Rad).

Binding result, binds:
B11
B12
